According to patent US20250340890, “DNA […] AS UNIVERSAL INHIBITORS OF SPIKE PROTEIN/HACE2 INTERACTIONS” (Bowling Green State University, published 2025):

B1: S2A2 (ssDNA)
DNA: CAAGGAGCGACCAGAGGCGGGTTCCTAGACTTGTACTCAGCCTTTACAGCTATGCCCTGGCATCCTTCAGCCC
B2: S2A2C3 (ssDNA)
DNA: CAAGGAGCGACCAGAGGCGGGTTCCTAGACTTGTACTCAGCCT
B3: S2A1 (ssDNA)
DNA: CAAGGAGCGACCAGAGGGGCGGTTTATCAACAACTCGCTCTGTACACCACTCTTTGTTGGCATCCTTCAGCCC
B4: S2A2C1 (ssDNA)
DNA: AGGCGGGTTCCTAGACTTGTACTCAGCCT
B5: S2A1C1 (ssDNA)
DNA: CAAGGAGCGACCAGAGGGGCGGTTTATCAACAACTCGCTCTGTACACCACTCTTTG
B6: A1C1 (ssDNA)
DNA: CGGGACGACGACGGACATCGTGAGAAATGGTCGACCTTGTGTCTGTCGTCCCG

Columns and labels:
[1] = biological target: SARS-CoV-2 WT spike S1S2 extracellular domain (SARS-CoV-2, UniProt P0DTC2)
[2] = biological target: SARS-CoV-2 WT spike S2 domain (SARS-CoV-2, UniProt P0DTC2 P0DTC2:686-1213)
[3] = biological target: Bovine serum albumin (BSA) (Bos taurus, UniProt P02769 P02769:25-607)
[4] = biological target: PD-L1 (UniProt Q9NZQ7 Q9NZQ7:19-238)
[5] = biological target: Lysozyme (UniProt P00698 P00698:19-147)
[6] = biological target: SARS-CoV-2 WT spike S1 (SARS-CoV-2, UniProt P0DTC2 P0DTC2:14-685)

Sequence of Bovine serum albumin (BSA) (P02769 25-607, one chain of several): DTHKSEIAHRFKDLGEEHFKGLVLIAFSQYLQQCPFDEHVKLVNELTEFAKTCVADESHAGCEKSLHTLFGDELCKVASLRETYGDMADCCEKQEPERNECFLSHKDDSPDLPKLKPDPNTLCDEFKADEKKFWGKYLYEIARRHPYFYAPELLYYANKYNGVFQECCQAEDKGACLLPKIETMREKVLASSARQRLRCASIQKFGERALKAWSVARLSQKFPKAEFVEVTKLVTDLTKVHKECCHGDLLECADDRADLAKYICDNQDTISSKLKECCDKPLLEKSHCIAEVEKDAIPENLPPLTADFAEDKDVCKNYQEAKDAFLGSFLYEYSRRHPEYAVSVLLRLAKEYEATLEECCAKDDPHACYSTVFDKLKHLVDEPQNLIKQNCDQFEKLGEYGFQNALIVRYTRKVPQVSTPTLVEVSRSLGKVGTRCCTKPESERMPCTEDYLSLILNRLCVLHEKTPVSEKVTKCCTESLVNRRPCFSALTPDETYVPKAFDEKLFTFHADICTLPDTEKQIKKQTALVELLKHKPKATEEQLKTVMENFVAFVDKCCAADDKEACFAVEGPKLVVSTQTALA
Sequence of PD-L1 (Q9NZQ7 19-238, one chain of several): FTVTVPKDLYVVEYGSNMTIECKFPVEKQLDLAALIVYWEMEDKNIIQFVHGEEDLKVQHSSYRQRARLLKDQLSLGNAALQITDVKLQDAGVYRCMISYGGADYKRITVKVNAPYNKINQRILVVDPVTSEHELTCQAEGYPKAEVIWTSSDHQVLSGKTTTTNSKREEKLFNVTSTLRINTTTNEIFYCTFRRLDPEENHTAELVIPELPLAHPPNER
Sequence of Lysozyme (P00698 19-147, one chain of several): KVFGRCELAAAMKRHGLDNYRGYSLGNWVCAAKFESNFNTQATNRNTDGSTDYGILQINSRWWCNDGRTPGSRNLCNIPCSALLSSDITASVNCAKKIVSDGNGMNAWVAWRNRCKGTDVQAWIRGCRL

Binder | binding result [1] | binding result [2] | binding result [3] | further results
B1 | binds |  |  | 
B2 |  | binds |  | 
B3 | binds |  |  | 
B4 |  |  | no binding | binding result [4]: no binding; binding result [5]: no binding; binding result [6]: no binding
B5 |  | binds |  | 
B6 |  |  | no binding | 
